Measurements from patent US20190367592A1.
Substitutions are numbered along the chain they refer to.

B1: hu37D3.v28.A4 (antibody, V domains shown)
VH: EVQLVESGGGLVQPGGSLRLSCAASGLIFRSYGMSWVRQAPGKGLEWVATINSGGTYTYYPDSVKGRFTISRDNSKNTLYLQMNSLRAEDTAVYYCANSYSGAMDYWGQGTLVTVSS
VL: DDVLTQTPLSLPVTPGQPASISCRSSQSIVHSNGNTYLEWYLQKPGQSPQLLIYKVSNRFSGVPDRFSGSGSGTDFTLKISRVEAEDVGVYYCFQGSLVPWTFGQGTKVEIK
B2: hu37D3-H9.v5 (antibody, V domains shown)
VH: B1 VH
VL: B1 VL with D1E, L38F
B3: hu37D3-H9.v1 (antibody, V domains shown)
VH: B1 VH
VL: EDQLTQSPSSLSASVGDRVTITCRSSQSIVHSNGNTYFEWYQQKPGKSPKLLIYKVSNRFSGVPSRFSGSGSGTDFTLTISSLQPEDFATYYCFQGSLVPWTFGQGTKVEIK

Biological target: monomeric cynomolgus monkey Tau (cynomolgus monkey)
Assay: SPR, hIgG captured, cyno Tau monomer analyte

Kd [nM] | koff [s⁻¹] | kon [M⁻¹ s⁻¹] | Binder
0.7 | 0.001 | 1.7e+06 | B1
0.6 | 0.001 | 1.5e+06 | B2
0.8 | 0.001 | 2e+06 | B3
